Earlier results, collected in article PMC4652184.

Target: Slit2 (Homo sapiens) (UniProt O94813)
Sequence (O94813 31-1529): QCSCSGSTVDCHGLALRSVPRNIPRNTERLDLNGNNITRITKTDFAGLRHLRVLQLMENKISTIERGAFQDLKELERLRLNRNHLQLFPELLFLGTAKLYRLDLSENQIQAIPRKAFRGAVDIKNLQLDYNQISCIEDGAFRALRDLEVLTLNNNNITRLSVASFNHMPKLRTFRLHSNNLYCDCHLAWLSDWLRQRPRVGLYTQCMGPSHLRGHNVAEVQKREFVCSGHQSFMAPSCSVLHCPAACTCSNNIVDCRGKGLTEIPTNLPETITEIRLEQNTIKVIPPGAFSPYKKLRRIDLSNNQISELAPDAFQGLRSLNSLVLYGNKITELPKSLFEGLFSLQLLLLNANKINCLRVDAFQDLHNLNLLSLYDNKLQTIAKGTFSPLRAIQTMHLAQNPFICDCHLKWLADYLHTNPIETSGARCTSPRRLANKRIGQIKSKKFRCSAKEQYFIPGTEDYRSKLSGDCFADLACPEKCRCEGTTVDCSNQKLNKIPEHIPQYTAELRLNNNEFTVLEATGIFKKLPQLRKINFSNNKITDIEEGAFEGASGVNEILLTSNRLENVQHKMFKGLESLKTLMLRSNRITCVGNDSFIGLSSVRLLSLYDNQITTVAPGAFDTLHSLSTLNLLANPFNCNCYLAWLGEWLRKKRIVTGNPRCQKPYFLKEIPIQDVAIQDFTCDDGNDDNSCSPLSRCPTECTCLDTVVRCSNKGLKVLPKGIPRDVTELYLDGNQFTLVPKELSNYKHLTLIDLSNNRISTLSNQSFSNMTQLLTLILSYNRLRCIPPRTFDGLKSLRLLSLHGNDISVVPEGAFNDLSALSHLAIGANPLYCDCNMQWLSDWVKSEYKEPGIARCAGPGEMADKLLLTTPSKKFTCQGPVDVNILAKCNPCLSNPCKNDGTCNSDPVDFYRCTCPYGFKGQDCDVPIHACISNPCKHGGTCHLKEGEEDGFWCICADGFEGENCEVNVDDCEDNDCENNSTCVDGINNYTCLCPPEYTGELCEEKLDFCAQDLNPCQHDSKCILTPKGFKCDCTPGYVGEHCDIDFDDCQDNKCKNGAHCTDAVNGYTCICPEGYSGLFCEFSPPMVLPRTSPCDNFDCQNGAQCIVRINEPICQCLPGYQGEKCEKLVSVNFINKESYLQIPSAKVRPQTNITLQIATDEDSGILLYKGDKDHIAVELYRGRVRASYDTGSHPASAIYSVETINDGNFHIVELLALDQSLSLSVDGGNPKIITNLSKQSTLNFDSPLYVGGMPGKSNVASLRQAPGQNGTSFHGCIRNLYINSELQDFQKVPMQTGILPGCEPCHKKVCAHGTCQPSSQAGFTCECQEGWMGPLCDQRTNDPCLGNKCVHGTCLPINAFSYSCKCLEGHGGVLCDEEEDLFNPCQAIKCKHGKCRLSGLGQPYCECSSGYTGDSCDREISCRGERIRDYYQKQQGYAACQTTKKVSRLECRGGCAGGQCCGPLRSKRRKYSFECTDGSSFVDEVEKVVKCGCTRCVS

Robo1, sequence (Q9Y6N7 26-897): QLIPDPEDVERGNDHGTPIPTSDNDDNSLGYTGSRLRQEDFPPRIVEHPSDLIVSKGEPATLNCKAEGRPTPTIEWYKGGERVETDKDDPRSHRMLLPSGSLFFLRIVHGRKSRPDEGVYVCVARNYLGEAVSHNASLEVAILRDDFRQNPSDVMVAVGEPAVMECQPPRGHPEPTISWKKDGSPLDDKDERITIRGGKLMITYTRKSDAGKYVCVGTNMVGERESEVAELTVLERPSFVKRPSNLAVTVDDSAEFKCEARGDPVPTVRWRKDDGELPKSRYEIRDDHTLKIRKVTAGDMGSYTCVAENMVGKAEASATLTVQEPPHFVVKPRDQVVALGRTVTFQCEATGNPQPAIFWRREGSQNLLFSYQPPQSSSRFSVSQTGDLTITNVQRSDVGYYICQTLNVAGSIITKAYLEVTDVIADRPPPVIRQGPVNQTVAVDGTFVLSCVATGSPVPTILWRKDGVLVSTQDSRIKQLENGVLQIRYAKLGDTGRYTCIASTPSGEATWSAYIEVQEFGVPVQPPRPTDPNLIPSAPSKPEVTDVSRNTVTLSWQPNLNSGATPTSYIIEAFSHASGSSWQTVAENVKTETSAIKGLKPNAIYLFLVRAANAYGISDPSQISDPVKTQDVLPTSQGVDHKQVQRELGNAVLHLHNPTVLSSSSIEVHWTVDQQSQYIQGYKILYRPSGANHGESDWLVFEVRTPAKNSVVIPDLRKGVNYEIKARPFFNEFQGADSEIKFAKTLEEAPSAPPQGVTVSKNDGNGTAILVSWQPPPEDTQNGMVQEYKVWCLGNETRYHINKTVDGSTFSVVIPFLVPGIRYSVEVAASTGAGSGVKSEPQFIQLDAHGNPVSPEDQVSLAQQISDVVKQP

## Robo1 (from UniProt Q9Y6N7)
  Kd: 4.5 nM
